± gives the uncertainty stated by the source.
Assay: amyloid nucleation score (Sup35N fusion, yeast selection) (log enrichment); library NNK2; higher = more nucleation; inactive = no reads after selection
Procedure, shortened: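 Sup35N was fused to peptides of 20 random codons and expressed in psi-negative yeast, which were induced with 100 μM copper sulfate for 24 hours and then grown on medium lacking adenine and uracil for 7 days at 30°C. Plasmid inserts from input and output were sequenced on Illumina. The nucleation score is the DiMSum log enrichment of output over input reads, centred on the mode score of non-aggregating sequences. Sequences with under 100 input reads were left out, and random libraries had three technical output replicates.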

Substance	amyloid nucleation score
YVRYFSIQTGHV	inactive
SKGRHVMGLGCEGNIWLKEL	-0.377 ± 0.34
ILGVLGFGGSRDRLSTRWGS	1.66 ± 0.16
HYMRFYCCSYNANKTVSYVP	8.72 ± 0.028
VFELFAMCSVSKCCGVSSVT	1.46 ± 0.4
TGTFRIAWM	6.64 ± 0.063
MRFSCWADIVRGDLIPHFVV	2.84 ± 0.09
TWLIRPKWVSVQVIRMLPMV	1.11 ± 0.41
FGLTRPEKWEHLHVYCNYMS	0.615 ± 0.38
SNWCGFSSTIKSESY	inactive
MGQLDGKACSICRSLVIIVY	2.23 ± 0.073
IRLTRY	-0.338 ± 0.35
CPLMNLYRNVFYVWKLNFLP	inactive
SISHQRMWKGCADEII	-0.242 ± 1.1
TNCHLFVSFFLCVDVYTVVC	4.72 ± 0.063
YYGLVQRLFSCVCYYVLTF	inactive
VRNGMANKGNDGRAAWEVNG	1.25 ± 0.21
FMYLPL	-0.596 ± 0.3
NCGLWNISMCPGDNLSSWDG	7.46 ± 0.039
SLPDRKIKWESGGP	0.646 ± 0.33
DNTLLALVGM	1.57 ± 0.58
SFVWRWRRSEFHQVMRGGWP	2.15 ± 0.23
DVLGLSGACFGITERVDRLA	2.32 ± 0.1
GLLGAVDRTVR	0.238 ± 0.56
AAWNRPHMERRFSYEGYYIV	-0.508 ± 0.63

Substance	amyloid nucleation score
QIDLL	-1.36 ± 1.1
LRNFSYIRQGGSRVSSASGY	-1.18 ± 1.1
FGFVTKYFMGV	1.96 ± 0.23
SLPGLGFLRLFFQ	0.089 ± 0.55
NTVFLLSFGCCEYYRFWGYL	8.34 ± 0.057
SRLGVFMYANVLWGKQSRND	6.267 ± 0.058
NIFMWSSTEIHCRWKVFLRL	-0.949 ± 0.44
LYSWAFSS	inactive
WFISPKDKGRASIHLNEYRW	3.97 ± 0.045
AFQITSERLGWKKVNHAVRW	0.432 ± 0.8
VRLCKYENSSWLSFRFQVQG	0.56 ± 0.39
CYSTLGLSG	0.516 ± 0.81
SRAIECVRIYTFNSHSWFIA	-1.38 ± 1.1
NHSGRYGRRLILRLGFFGVG	-0.655 ± 0.28
TYAYYH	5.61 ± 0.061
KAKLMKRSFWMWSCLLCFR	0.912 ± 0.74
CSGSLHERQYVRYDEVRRVG	-0.031 ± 0.55
ILFGFSLPGSCDNWDRDAKG	-1.15 ± 0.78
LEVKEVSEFLRLTYMYL	-1.67 ± 0.62
AFWVLTVPLGSWYCACYCYS	-0.662 ± 0.39
TGCMSFSWPWTLLVSPIQLS	-0.651 ± 0.48
SVLAFKSFGSHCIGYIYVNL	inactive
ALMVEDRH	0.382 ± 0.8
HSFVNNEKASQMSSCETGGS	-0.509 ± 0.41
VYWCLITFNHEDAHSYCFL	2.22 ± 0.26

Substance	amyloid nucleation score
LTTSFANAWHFNFLGRPLH	2.18 ± 0.18
FSTHDIGSRKWARQYLYVVH	0.334 ± 0.31
TDYLGLWPWVSSSLGRVVTW	1.22 ± 0.45
PFGGVEAFAGRMWWVEHSYW	0.009 ± 0.55
VMIWVTA	0.637 ± 0.25
SGPWTSWLVSLG	-0.003 ± 1.1
YSGAYRLHYGFHIIICVCRW	3.21 ± 0.066
LGFAGSVGICDRKTLDRREC	4.91 ± 0.064
IGINLCCGDYFIHVLSASCS	5.2 ± 0.058
RVSYDF	0.43 ± 0.65
GAWTAMSGVLMVMLWLWSVC	1.83 ± 0.23
MMVYKGMPVLPCEYRVLY	-0.199 ± 0.36
TVWGQECYW	5.74 ± 0.077
PTRIFSCSRSGGWYYL	-0.831 ± 0.32
VSPALK	-0.055 ± 1.1
CMVNPVPWDCLVRKFMFVGA	-0.421 ± 0.35
LDYRWKTGGSLWGG	-0.578 ± 1.1
NRILWSPNEKLLKHVTQVTL	-0.795 ± 0.61
CAVDLFGVAIRALMFRSWGC	inactive
CFCLPSNSNI	1.19 ± 0.09
GWMQIGSVYLFSE	7.741 ± 0.048
SVVLYMLVLLDADLSVKTRD	2.52 ± 0.06
CIYMSRSRRKCGCSLGTRYV	-0.393 ± 1
RTLFSRFYRRSMFNLSVKKK	inactive
VHLSKDLCYLLSGYGYFPCF	-0.216 ± 0.36

Substance	amyloid nucleation score
LTGLFAGLKGKCLFTVNRGI	-0.318 ± 0.44
NEFRDIYGFSVSKLPTGGIC	-1.17 ± 0.41
LKSEALDGAADCRGCYSGPL	0.374 ± 0.64
NYTGQTFVMTGLISFNPQIG	5.79 ± 0.074
SNFSMVCAVCV	0.454 ± 0.34
LDSSMSTGNLRLCFFESICS	0.232 ± 0.56
RSRVLILCDEGRNCVL	-0.533 ± 0.42
FSLGQKLLFCFCEVCWLNVA	2.97 ± 0.1
FGKFFCCWSSLRNEKCYFAM	inactive
FLIFSYIGLFSVISYRSARV	inactive
ITPMFPCLVVWWWESR	-0.235 ± 0.61
TMMSLSGIVL	-0.376 ± 0.48
LKCPGLTREGLSPYKSSLPN	-0.202 ± 1
LLLGTSVDVFL	0.07 ± 0.74
HSNLVT	0.234 ± 0.41
TTILEL	-0.305 ± 0.79
WIVRFSGCCDVGWTSGVRSY	6.17 ± 0.075
FLGTHVHANCSGYMVMIVYR	7.773 ± 0.041
SSRQSW	0.082 ± 1
VPVFFGPFQYT	-0.419 ± 0.63
KGRGEMSLLFYSILLVGFCL	inactive
EVERGIN	0.62 ± 0.56
SCYRFSRSRS	-0.359 ± 0.49
NRTAFPCFLA	-0.473 ± 0.49
GCSVKFIFNHKSGYYIYLLF	-0.822 ± 0.54

Substance	amyloid nucleation score
APLNLSFIHPTFIWLYCLLG	4.27 ± 0.05
WLYDPSIMWNIGWVSNMMHQ	-0.454 ± 0.24
SHNGHVLVPNRVVSITSCHR	0.147 ± 0.76
GPIWCRS	-0.467 ± 0.74
SVYLVG	-0.271 ± 0.65
TLGYKFWMGRYRVNSAYGFE	-0.005 ± 0.61
VKYRDIMSRGSVVRQNDKVS	inactive
LSVSDEVRQV	-0.466 ± 0.79
ACTVWIMLRDSCWKARDRSG	2.95 ± 0.082
RDLLIGDDI	-0.983 ± 0.44
FGCNSSGWNVKIPSGGLGNE	-0.647 ± 0.53
RVGFNNRNVVD	0.266 ± 0.56
LCINN	-1.99 ± 1.1
MCWIVTFTRLCWLMFNSERC	inactive
LYRVILLSSRHNGSNIWAEF	0.127 ± 0.74
WFYKVSSA	-0.481 ± 0.55
FHRCSYLVT	2.95 ± 0.09
SYSYDRVRKDTELARRNRAV	0.436 ± 0.44
TVTVDIFSKEWTGGTNFCDI	-0.179 ± 0.76
NSIGV	-1.02 ± 0.55
PSRVSVSYM	2.69 ± 0.076
GTTVMGGILVLDGQALIGSM	1.06 ± 0.28
VLLQNYAMVAFT	-1.07 ± 0.45
PRKPRNVDSL	0.134 ± 0.18
AVCWYNVQVRSSRNLYGQPK	0.221 ± 0.5

Substance	amyloid nucleation score
DDSFML	-0.134 ± 1.1
FVLMMDYEIIFLN	4.52 ± 0.071
LYLTRMFTTNAL	0.806 ± 0.58
KIFSSF	-1.01 ± 1.1
TDASYNRMVTYFKWIISGYR	-1.39 ± 0.54
FVRSIDNSAYLLWVSLYPCM	-0.364 ± 0.79
LGTAKNFIPSGNVRLLALQF	inactive
FAHAIVSHDWDQRVRGWSGC	0.836 ± 0.41
LCNNKAYNDKLSPEPLAISR	-0.578 ± 0.39
FCYAYTFMHEYLRGC	0.737 ± 0.3
TDYGLVALSQWKRVCLIQSG	0.176 ± 0.22
HPFVSDCVMDLKFTVVTGLV	0.086 ± 0.3
VLELLGPIMSRKIFLKVGFC	inactive
SCCEGISSVNNLFMRRRGIE	0.201 ± 0.53
VSHRG	2.37 ± 0.076
WSGKRAFNYINGGLGMAKEL	4.11 ± 0.062
SFIHDWTNFHGSLGFDYGCD	0.112 ± 1.1
LVQMLVSV	-0.342 ± 1
WLYLFKGWSNLDSESFTMTS	-0.943 ± 0.78
DRYHDTMAMKARVWSDRCKS	1.94 ± 0.34
TLCTVSHLNDSLLIFIRFVV	inactive
MRRRMQSWANRSLSTGWGMF	-0.091 ± 0.38
VYFMCLWGFI	-0.453 ± 1.1
LCPLTHFFVFEVYFSDPYRE	5.69 ± 0.075
QMMLLTV	-0.214 ± 1.1

Substance	amyloid nucleation score
DMMRFYGAPDGQGNTHQNRT	1.63 ± 0.12
ISHISDL	4.61 ± 0.072
AKLLSAVVWDCHWV	5.17 ± 0.055
FYYLWWDSFRIVISMR	-1.86 ± 0.62
VCFLQFYLSIFTTHTVSTYK	-0.547 ± 0.76
NVVMHRENVYFCLVNLHWTD	7.837 ± 0.04
GCYLVNDASPVSHLVFLPM	inactive
GLSLLRGTNSGSAARLGANG	0.452 ± 0.32
IALQDSDFSLLWFMHVCWDE	-0.463 ± 0.74
NTFQSKDRGQWCSTRNAYKG	-0.772 ± 0.45
SVNWTRLRECKPWMQVFNRG	0.208 ± 0.56
GWLYVYDSGMFGGWNIGVDG	-0.131 ± 0.36
SAGVEAREMRTSYLGSSEVG	1.28 ± 0.32
VKINSTDMSMVQNCNYLIWV	-0.531 ± 1.1
QRFRHRKTQISVFS	-0.876 ± 1.1
LTAGVYSSSWSDVS	1.4 ± 0.14
RVEEWASFTTVIIMRMLNPG	0.94 ± 0.6
MLSLVMRVGFNCFIT	0.208 ± 1.1
VFSYRLLSNPLSVPW	4.83 ± 0.089
FVSGDHGTVWYIT	-0.036 ± 0.48
SLIKKFMLCFVYQREAHLLS	0.402 ± 0.8
RLTDLVSMVSLNPLYFMWSS	-0.08 ± 0.3
LAKFYLWCSGYMHSS	0.214 ± 0.65
